The text below walks through data of patent publication US20040028672.

In the series the test system is LL-37.

For the substance Pseudomonas aeruginosa elastase, the “degradation of LL-37 (SDS-PAGE) and loss of bactericidal activity against E. faecalis” value was “LL-37 is degraded and inactivated by P. aeruginosa elastase”.
